Experimental data as given in FireProtDB (doi:10.1021/bi060907v).

B1: Ribonuclease HII, O74035 (parent)
chain: MKIAGIDEAGRGPVIGPMVIAAVVVDENSLPKLEELKVRDSKKLTPKRREKLFNEILGVLDDYVILELPPDVIGSREGTLNEFEVENFAKALNSLKVKPDVIYADAADVDEERFARELGERLNFEAEVVAKHKADDIFPVVSAASILAKVTRDRAVEKLKEEYGEIGSGYPSDPRTRAFLENYYREHGEFPPIVRKGWKTLKKIAEKVESEKKAEERQATLDRYFRKV

Variants of: B1
Settings: Thermococcus kodakarensis (strain ATCC BAA-918 / JCM 12380 / KOD1), pH 9, reversible: Yes, structure 1IO2, whole UniProt chain shown; for ddG of mutation (higher = less stable) / denaturant m value / denaturant midpoint (higher = more stable): 50 °C, GdnHCl, CD, Tris-HCl 20 mM; for Tm / change of melting temperature, mutant - wild type (higher = more stable) / unfolding enthalpy (calorimetric) / unfolding enthalpy (van 't Hoff): Thermal, DSC, Gly-NaOH 20 mM

Variant	ddG of mutation (higher = less stable) [kcal/mol]	denaturant m value [kcal/mol/M]	denaturant midpoint (higher = more stable) [M]	Tm [°C]	change of melting temperature, mutant - wild type (higher = more stable) [°C]	unfolding enthalpy (calorimetric) [kcal/mol]	unfolding enthalpy (van 't Hoff) [kcal/mol]
MKIAGIDQAGRGPVIGPMVIAAVVVDENSLPKLEELKVRDSKKLTPKRREKLFNEILGVLDDYVILELPPDVIGSREGTLNEFEVENFAKALNSLKVKPDVIYADAADVDEERFARELGERLNFEAEVVAKHKADDIFPVVSAASILAKVTRDRAVEKLKEEYGEIGSGYPSDPRTRAFLENYYREHGEFPPIVRKGWKTLKKIAEKVESEKKAEERQATLDRYFRKV [E8Q]	-0.6	3.73	1.97	85.9	0.6	158	163
MKIAGIDAAGRGPVIGPMVIAAVVVDENSLPKLEELKVRDSKKLTPKRREKLFNEILGVLDDYVILELPPDVIGSREGTLNEFEVENFAKALNSLKVKPDVIYADAADVDEERFARELGERLNFEAEVVAKHKADDIFPVVSAASILAKVTRDRAVEKLKEEYGEIGSGYPSDPRTRAFLENYYREHGEFPPIVRKGWKTLKKIAEKVESEKKAEERQATLDRYFRKV [E8A]	-2.65	4.73	2.39	93.2	8	171	150
MKIAGIDEAGRGPVIGPMVIAAVVVDENSLPKLEELKVRDSKKLTPKRREKLFNEILGVLDDYVILELPPDVIGSREGTLNEFEVENFAKALNSLKVKPDVIYAAAADVDEERFARELGERLNFEAEVVAKHKADDIFPVVSAASILAKVTRDRAVEKLKEEYGEIGSGYPSDPRTRAFLENYYREHGEFPPIVRKGWKTLKKIAEKVESEKKAEERQATLDRYFRKV [D105A]	-1.58	5.66	2.17	89.4	4.2	170	162
MKIAGIDEAGRGPVIGPMVIAAVVVDENSLPKLEELKVRDSKKLTPKRREKLFNEILGVLDDYVILELPPDVIGSREGTLNEFEVENFAKALNSLKVKPDVIYADAADVDEERFARELGERLNFEAEVVAKHKAADIFPVVSAASILAKVTRDRAVEKLKEEYGEIGSGYPSDPRTRAFLENYYREHGEFPPIVRKGWKTLKKIAEKVESEKKAEERQATLDRYFRKV [D135A]	-2.56	4.85	2.37	90.4	5.2	147	153
MKIAGINEAGRGPVIGPMVIAAVVVDENSLPKLEELKVRDSKKLTPKRREKLFNEILGVLDDYVILELPPDVIGSREGTLNEFEVENFAKALNSLKVKPDVIYADAADVDEERFARELGERLNFEAEVVAKHKADDIFPVVSAASILAKVTRDRAVEKLKEEYGEIGSGYPSDPRTRAFLENYYREHGEFPPIVRKGWKTLKKIAEKVESEKKAEERQATLDRYFRKV [D7N]	-1.67	4.45	2.18	88.3	3.1	137	163
